Source: paper PMC5884809, “ETV2-TET1/TET2 Complexes Induce Endothelial Cell-Specific Robo4 Expression via Promoter Demethylation”

Tests used:
[1] = target: T1, ETV2 (UniProt O00321 1-342); test: competition; 50-fold excess vs ETS(2) probe, EMSA; EMSA: 3 µl TNT ETV2, 30 min at 4 °C; 4% native polyacrylamide gel, 0.5x TBE, 120 V 2 h; binding buffer, salt and pH not stated; conditions: protein: ivt; blunt ends, 2 internal mismatches as printed
T1 sequence: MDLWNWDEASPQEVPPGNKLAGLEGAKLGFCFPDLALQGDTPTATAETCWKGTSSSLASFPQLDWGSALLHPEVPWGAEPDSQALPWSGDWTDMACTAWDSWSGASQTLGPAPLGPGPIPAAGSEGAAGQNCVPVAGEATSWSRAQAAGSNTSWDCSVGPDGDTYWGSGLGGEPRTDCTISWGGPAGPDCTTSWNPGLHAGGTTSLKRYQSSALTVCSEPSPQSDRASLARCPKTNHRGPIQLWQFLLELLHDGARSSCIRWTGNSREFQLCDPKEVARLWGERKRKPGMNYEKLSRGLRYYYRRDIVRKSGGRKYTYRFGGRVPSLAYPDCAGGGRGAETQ

[2] = target: T1, ETV2; test: EMSA; strongest shift of the four; abolished by 50-fold WT competitor; EMSA: 3 µl TNT ETV2, 30 min at 4 °C; 4% native polyacrylamide gel, 0.5x TBE, 120 V 2 h; binding buffer, salt and pH not stated; conditions: protein: ivt; label: 32P (probe); blunt
[3] = target: T1, ETV2; test: competition; 50-fold excess vs ETS(3) probe, EMSA; EMSA: 3 µl TNT ETV2, 30 min at 4 °C; 4% native polyacrylamide gel, 0.5x TBE, 120 V 2 h; binding buffer, salt and pH not stated; conditions: protein: ivt; blunt
[4] = target: T1, ETV2; test: competition; 50-fold excess vs ETS(4) probe, EMSA; EMSA: 3 µl TNT ETV2, 30 min at 4 °C; 4% native polyacrylamide gel, 0.5x TBE, 120 V 2 h; binding buffer, salt and pH not stated; conditions: protein: ivt; blunt
[5] = target: T1, ETV2; test: competition; 50-fold excess vs ETS(1) probe, EMSA; EMSA: 3 µl TNT ETV2, 30 min at 4 °C; 4% native polyacrylamide gel, 0.5x TBE, 120 V 2 h; binding buffer, salt and pH not stated; conditions: protein: ivt; blunt
[6] = target: T1, ETV2; test: EMSA; third strongest shift; abolished by 50-fold WT competitor; EMSA: 3 µl TNT ETV2, 30 min at 4 °C; 4% native polyacrylamide gel, 0.5x TBE, 120 V 2 h; binding buffer, salt and pH not stated; conditions: protein: ivt; label: 32P (probe); blunt
[7] = target: T1, ETV2; test: EMSA; second strongest shift; abolished by 50-fold WT competitor; EMSA: 3 µl TNT ETV2, 30 min at 4 °C; 4% native polyacrylamide gel, 0.5x TBE, 120 V 2 h; binding buffer, salt and pH not stated; conditions: protein: ivt; label: 32P (probe); blunt
[8] = target: T1, ETV2; test: EMSA; least pronounced shift of the four; abolished by 50-fold WT competitor; EMSA: 3 µl TNT ETV2, 30 min at 4 °C; 4% native polyacrylamide gel, 0.5x TBE, 120 V 2 h; binding buffer, salt and pH not stated; conditions: protein: ivt; label: 32P (probe); blunt

B1: ETS(2)mut (dsDNA)
DNA 1: CATCGGTTAGGTTCAAGCCGC
DNA 2: GCGGCTTTGACCTAACCGATG
[1]
  binding result: no binding

B2: ETS(1) (dsDNA)
DNA 1: GGGCCAGGCAGGAAGCATCGG
DNA 2: CCGATGCTTCCTGCCTGGCCC
[2]
  binding result: binds

B3: ETS(3)mut (dsDNA)
DNA 1: CAAAGCCGCTAGGCTCCTGGG
DNA 2: CCCAGGAGCCTAGCGGCTTTG
[3]
  binding result: no binding

B4: ETS(4)mut (dsDNA)
DNA 1: CCCCTCCTAGGCTCTTCACTG
DNA 2: CAGTGAAGAGCCTAGGAGGGG
[4]
  binding result: no binding

B5: ETS(1)mut (dsDNA)
DNA 1: GGGCCAGGCACCTAGCATCGG
DNA 2: CCGATGCTAGGTGCCTGGCCC
[5]
  binding result: no binding

B6: ETS(3) (dsDNA)
DNA 1: CAAAGCCGCTTCCCTCCTGGG
DNA 2: CCCAGGAGGGAAGCGGCTTTG
[6]
  binding result: binds

B7: ETS(2) (dsDNA)
DNA 1: CATCGGTTTCCTCAAAGCCGC
DNA 2: GCGGCTTTGAGGAAACCGATG
[7]
  binding result: binds

B8: ETS(4) (dsDNA)
DNA 1: CCCCTCCTTCCCTCTTCACTG
DNA 2: CAGTGAAGAGGGAAGGAGGGG
[8]
  binding result: binds
